Data from US20190077844A1 (published 2019).

Legend:
[1] = molecular target: T1, Human glypican-3 on cells (Huh7, Hep3B, H446, HepG2; Hep3B xenograft tissue) (UniProt P51654 25-554); assay: flow cytometry; H446 cells
[2] = molecular target: T1, Human glypican-3 on cells (Huh7, Hep3B, …); assay: flow cytometry; Hep3B cells

T1 sequence (P51654 25-554): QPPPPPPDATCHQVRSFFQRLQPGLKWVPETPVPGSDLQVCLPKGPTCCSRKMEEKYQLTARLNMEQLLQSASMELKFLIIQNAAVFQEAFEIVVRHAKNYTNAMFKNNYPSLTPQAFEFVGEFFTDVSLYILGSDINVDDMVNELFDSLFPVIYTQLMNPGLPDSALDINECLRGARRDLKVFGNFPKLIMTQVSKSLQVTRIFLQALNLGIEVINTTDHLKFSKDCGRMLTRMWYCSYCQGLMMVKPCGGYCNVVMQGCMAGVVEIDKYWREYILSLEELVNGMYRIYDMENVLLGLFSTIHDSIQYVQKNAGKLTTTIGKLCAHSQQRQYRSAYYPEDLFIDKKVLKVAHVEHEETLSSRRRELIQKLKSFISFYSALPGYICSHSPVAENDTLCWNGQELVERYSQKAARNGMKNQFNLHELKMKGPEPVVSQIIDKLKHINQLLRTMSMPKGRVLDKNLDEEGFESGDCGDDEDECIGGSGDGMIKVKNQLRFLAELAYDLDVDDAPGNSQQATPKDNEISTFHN

EC50 [1] [nM]	EC50 [2] [nM]	Binder
0.386	0.664	ADX_6077_F02 tubulysin analog drug conjugate DAR1 (designed binder, tubulysin analog-linker (formula IV) on the cysteine of the C-terminal PC via maleimide) MGVSDVPRDLEVVAATPTSLLISWSDDYHAHRYYRITYGETGGNSPVQEFTVPGEHVTATISGLKPGVDYTITVYAVTYDGEKAATDWSISINYRTPCHHHHHH
0.573	0.537	ADX_6912_G02 tubulysin analog drug conjugate DAR2 (designed binder, tubulysin analog-linker (formula IV) on each of the two cysteines of the C-terminal PCPPPPPC) MGVSDVPRDLEVVAATPTSLLISWSDDYHAHRYYRITYGETGGNSPVQEFTVPGEHVTATISGLKPGVDYTITVYAVTYDGEKAATDWSISINYRTPCPPPPPCHHHHHH
